Data on 1 substance can be found in patent US20150283263A1.

The assay deals with CD25 (human) (UniProt P01589). The assay can be described thus: flow cytometry on Karpas299 cells (surface CD25); negative control antibody.
Chain of CD25 (human) (P01589 22-272): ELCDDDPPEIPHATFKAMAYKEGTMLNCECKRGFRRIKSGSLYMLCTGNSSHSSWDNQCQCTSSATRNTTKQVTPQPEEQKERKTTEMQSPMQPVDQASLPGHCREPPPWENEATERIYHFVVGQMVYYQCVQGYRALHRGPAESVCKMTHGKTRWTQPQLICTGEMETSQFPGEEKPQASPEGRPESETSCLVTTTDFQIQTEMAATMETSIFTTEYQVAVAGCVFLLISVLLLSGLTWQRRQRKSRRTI

B12 anti-HIV gp120 antibody came in with an EC50 of 537 µg/mL.
